Tests used:
Type in all cases: biochemical
[1] = target: T1, PTPRD D1 phosphatase (SEQ ID NO: 1) (Homo sapiens, UniProt P23468); assay: Orthophosphate release assay (malachite green/molybdate) with phosphopeptide substrates; conditions: for PTPRD's activity in dephosphorylating CDK5 phosphopeptide (positive allosteric modulation): pY15 CDK5 phosphopeptide, flavonoid 10^−4 M (FIG. 7); for PTPRD's activity in dephosphorylating CDK5 phosphopeptide (positive allosteric modulation) / PTPRD's activity in dephosphorylating GSK3 phosphopeptide (positive allosteric modulation): vs vehicle; for PTPRD's activity in dephosphorylating GSK3 phosphopeptide (positive allosteric modulation): pYGSK3 phosphopeptide, flavonoid 10^−4 M (FIG. 8); for normalized rates of liberation of orthophosphate from pY15CDK5 alanine substitution mutants vs wildtype: FIG. 5, Glu-substitution mutants (1, 4, 6) reductions, Lys-substitution mutants (2, 7) increases
T1 construct: His6 (N); made in house; host or cells: E. coli (vector optimized for E. coli codon use)
T1 sequence (P23468 with tags, fused parts or gaps): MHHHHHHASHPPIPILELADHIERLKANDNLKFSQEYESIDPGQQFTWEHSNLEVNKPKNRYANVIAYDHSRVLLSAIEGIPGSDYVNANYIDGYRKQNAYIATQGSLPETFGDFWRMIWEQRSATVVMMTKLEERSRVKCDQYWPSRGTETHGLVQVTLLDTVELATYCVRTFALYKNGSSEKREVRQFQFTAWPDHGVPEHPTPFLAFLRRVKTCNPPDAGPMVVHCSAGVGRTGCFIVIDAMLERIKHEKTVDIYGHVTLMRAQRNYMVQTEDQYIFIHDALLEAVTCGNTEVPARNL
From the text: The following examples utilized phosphatase protein produced from a His-tagged D1 phosphatase domain synthesized expression vector optimized for E. coli codon use (SEQ ID NO: 1). This protein was purified to >95% purity and was active in hydrolyzing pNPP substrate (FIG. 1). Human wildtype and mutant phospho- and dephospho-GSK3β/GSK3α and CDK5 peptides were synthesized (Pierce/ThermoFisher, SEQ ID NOs: 2-12) and control END(pY)INASL peptide (Promega, SEQ ID NO: 13) was purchased. Flavonoids were purchased from Thermo-Fisher, Aldrich, Cayman Chemical and AK Scientific. Purities were >95%.
Orthophosphate release assays (Promega V2471) used Malachite green and molybdate with spectrophotometric detection of liberated free orthophosphate from test phosphopeptides compared to control and mutant peptides with assessments for the times indicated. Reactions were carried out in a half-area 96-well plate, with three wells dedicated for each time point. To each experimental well, we added a mixture of 18 μL of ultrapure water, 25 μL of running buffer, 1 μL of a 10 mM DMSO solution of the desired peptide, and 1 μL of DMSO containing a desired concentration of flavonoid, or 1 μL DMSO for control experiments. The supplied molybdate dye mixture (50 μL) was added at t=0, followed by 5 μL of a 1:100 dilution of enzyme in the aforementioned dilution buffer. Other wells were initiated via the addition of 5 μL of the diluted enzyme mixture@t=0 and terminated at the desired timepoints by addition of 50 μL of the dye solution. Wells were read@605 nm.

human PTPRD phosphatase = target: T2, human PTPRD phosphatase (Homo sapiens, UniProt P23468); assay: pNPP dephosphorylation to p-nitrophenolate (405 nm); conditions: FIG. 4; peptide 4×10^−4 M, pNPP 1.8×10^−5M
T2 construct: His6 (N); made in house; host or cells: E. coli (vector optimized for E. coli codon use)
T2 sequence (P23468 with tags, fused parts or gaps): T1 sequence (P23468 with tags, fused parts or gaps)
Experimental: pNPP dephosphorylation to p-nitrophenolate: Triplicate assays were used for human PTPRD phosphatase, pNPP substrate and spectrophotometric 405 nm detection of the dephosphorylation product of these enzyme's activities using a Spectromax plate reader. Controls used 5×10^−5M 7-BIA with 18 min incubations as described. See G. R. Uhl et al., “Cocaine reward is reduced by decreased expression of receptor-type protein tyrosine phosphatase D (PTPRD) and by a novel PTPRD antagonist.” Proc Natl Acad Sci USA 115, 11597-11602 (2018). For assays determining the effect of flavonoids on pNPP hydrolysis, a 96 well half-area plate was prepared by first filling each well to be tested with 18 μL of 50 μM pNPP and 25 μL of running buffer (43.4 μM HEPES (pH 7.4), 2.2 μM dithiothreitol, 0.44% acetylated bovine serum albumin, 22.2 μM NaCl, 4.4 μM EDTA), and 2 μL of DMSO containing the desired concentration of flavonoid and/or peptide. PTPRD1 was diluted 1:50 in a dilution buffer (22.9 μM pH 7.4 HEPES, 1% acetylated bovine serum albumin, 4.6 μM dithiothreitol). At the zero time point, 5 uL of this solution was added to each well, and the optical density was measured in 36 second intervals at 405 nm. Results were plotted and the slopes of the linear region were fit. All experiments were performed three times with three wells dedicated to each experimental condition in each experiment.

[2] = target: T1, PTPRD D1 phosphatase (SEQ ID NO: 1); assay: Orthophosphate release assay (malachite green/molybdate) with phosphopeptide substrates; conditions: peptide as substrate; FIG. 1

Row | Compound | PTPRD's activity in dephosphorylating CDK5 phosphopeptide (positive allosteric modulation) [1] | PTPRD's activity in dephosphorylating GSK3 phosphopeptide (positive allosteric modulation) [1] | competition for PTPRD phosphatase's hydrolysis of pNPP (human PTPRD phosphatase) | normalized rates of liberation of orthophosphate from pY15CDK5 alanine substitution mutants vs wildtype [1] | further results
1 | O=c1c(O)c(-c2ccc(O)c(O)c2)oc2cc(O)ccc12 [fisetin] | trend-level | significant | – | – | –
2 | O=c1c(O)c(-c2ccc(O)cc2O)oc2cc(O)cc(O)c12 [morin] | trend-level | significant | – | – | –
3 | O=c1c(O)c(-c2cc(O)c(O)c(O)c2)oc2cc(O)cc(O)c12 [myricetin] | trend-level | significant | – | – | –
4 | O=c1c(O)c(-c2ccc(O)c(O)c2)oc2cc(O)cc(O)c12 [quercetin] | increased | increased | – | – | stimulation of orthophosphate liberation from phosphopeptides by PTPRD phosphatase, dose-response ([1]; FIG. 9, pYGSK3 and pYCDK5 phosphopeptides): active at micromolar concentrations
5 | QLVRGEPNVS-pY-ICSRYYRAPE [GSK3 phosphopeptide] | – | – | competes | – | liberation of orthophosphate from phosphopeptide by PTPRD's phosphatase [2]: substantial liberation of orthophosphate
6 | QLVRGEPNVSYICSRYYRAPE (QLVRGEPNVSSYICSRYYRAPE) [dephospho GSK3β, GSK3α peptide, GSK3β/α wildtype dephosphopeptide] | – | – | inactive | – | –
7 | YAKLAKIGAGT-pY-GTVFKAKN [mutant 6] | – | – | – | nominally-significant (6) reductions in activity | –
8 | YEALEAIGEGT-pY-GTVFKAKN [mutant 7] | – | – | – | nominally-significant increases in activity | –
9 | YEALEKIGEGT-pY-GTVFKAKN [mutant 4] | – | – | – | trends | –
10 | YEKLEAIGEGT-pY-GTVFKAKN [mutant 2] | – | – | – | nominally-significant increases in activity | –
11 | YEKLEKIGAGT-pY-GTVFKAKN [mutant 1] | – | – | – | trends | –
12 | YEKLEKIGEGT-pY-GTVFKAKN [CDK5 phosphopeptide] | – | – | competes | – | liberation of orthophosphate from phosphopeptide by PTPRD's phosphatase [2]: rates similar to those found for the generic positive control substrate
13 | YEKLEKIGEGTYGTVFKAKN [dephospho CDK5 peptide, CDK5 wildtype dephosphopeptide] | – | – | inactive | – | –
